Several values for one entry are separate records, joined by “and”; a condition that tells them apart may be missing. Identical values can stand only once. Like-named read-outs stand apart in the source and are kept apart here.
Legend:
human mast cell tryptase = test: VIP assay for tryptase activity (Dns-VIP hydrolysis, HPLC/fluorescence, Dixon plot); assay type: biochemical; details: rate of loss of full-length VIP (1-28), 0.2 and 0.8 μM VIP, 37° C., read-out: Ki for inhibition of tryptase degradation of full length Dns-VIP
Description: In a typical assay, mast cell tryptase (12.5 pM) was incubated at 37° C. with dansyl-VIP (0.2-2 μM) in 100 mM Tris-HCl (pH 8.0) containing 1 μg/ml porcine mucosal heparin and 0.02% Triton X-100 in a final volume of 2.0 ml. To some samples, secretory leukocyte protease inhibitor was added to a final concentration of between 0 and 107 nM. The tryptase was pre-incubated with the SLPI, if added, for 5 min. at 37° C. before initiating the reaction by the addition of Dns-VIP. Aliquots (250 μl) were removed at 0, 2.5, 5.0, 7.5, 10, and 20 minutes to micro-vials (Sunbrokers) and the reaction terminated by the addition of TFA to a final concentration of 3% (v/v). The acidified reaction mixture was subjected to chromatography on a C-18 reverse-phase column (Vydac, 5 micron, 0.46×25 cm). Peptide hydrolysis was monitored by HPLC using a Hewlett Packard HP1090 unit complete with binary solvent delivery and autoinjection capability. Fluorescent detection (postcolumn) was performed with an inline Gilson Model 121 filter fluorimeter (excitation at 310-410 nm, emission at 480-520 nm). Dns-VIP fragments were separated from any unconverted Dns-VIP using a linear gradient of 69:31 (v/v) to 50:50 (v/v) C:D over 5.5 minutes (C=100 mM sodium acetate, pH 6.5 plus 0.2% sodium azide, D=80% ACN in water), with return to 69:31 (v/v) C:D at 6.5 minutes. Chromatography was performed at 1.0 ml/min at 25° C. […]

tryptase = test: GPK-AMC assay for tryptase activity (Dixon plot); assay type: biochemical, human; details: Table V footnote
Description: Tryptase activity was measured according to the procedure of Schwartz, et al., J. Biol. Chem., 261, 7372-7379 (1986) , with minor modifications, using Gly-Pro-Lys-Aminomethylcoumarin (GPK-AMC) as a substrate. The reaction was performed in assay buffer (0.1M Tris, pH 8.0, 10 μg/ml heparin) at room temperature in a 96-well microtiter plate (Perkin-Elmer, Norwalk, Conn.). The amount of coumarin produced by tryptase was determined by measuring the fluorescence (ex=372 nm, em=432 nm) on a Perkin-Elmer LS-50B fluorimeter equipped with a plate reader. 50 μl of tryptase (final concentration of 333 pM) was mixed with either 50 μl of the sample to be tested or with assay buffer and incubated for 5 min. at room temperature. […] The fluorescence intensity was measured every 5 minutes. For samples that were being tested for modulators of tryptase activity, the % inhibition for each fraction was determined by:
Inhibitory activity against tryptase and bovine trypsin was measured using Gly-Pro-Lys-aminomethylcoumarin as a substrate. […] The amount of coumarin produced was determined by measuring the fluorescence (ex=370 nm, em=432 nm) on a Perkin-Elmer LS-50B fluorimeter. […] The reaction was started by the addition of the substrate GPK-AMC (20 or 40 μM final) and the increase in fluorescence was measured over a 2 minute period. […]

B1: secretory leukocyte protease inhibitor (protein)
chain: SGKSFKAGVCPPKKSAQCLRYKKPECQSDWQCPGKKRCCPDTCGIKCLDPVDTPNPTRRKPGKCPVTYGQCLMLNPPNFCEMDGQCKRDLKCCMGMCGKSCVSPVKA
- Ki (human mast cell tryptase; listed as Full SLPI): 8 nM
- Ki (human mast cell tryptase): 8 nM and ~8 nM
- Response in GPK-AMC tryptase assay (tryptase): biphasic response

Source: patent publication US5633227A, “Secretory leukocyte protease inhibitor as an inhibitor of tryptase” (Miles, Inc., priority 1994, dated 1997)
